{"source": "patent US20040001801A1", "about": "(priority 2002, published 2004)", "settings": "mouse, in vivo", "note": "Square brackets hold non-standard residues; d marks the D form. Peptide text beside a SMILES is read from it. * marks the point of attachment. Doxorubicin(3'-N) = COc1cccc2c1C(=O)c1c(O)c3c(c(O)c1C2=O)C[C@@](O)(C(=O)CO)C[C@@H]3O[C@H]1C[C@H](N*)[C@H](O)[C@H](C)O1; Nle = CCCC[C@H](N)C(=O)O", "data": [{"smiles": "CCCC[C@H](NC(=O)[C@H](CO)NC(=O)[C@H](CCCNC(=N)N)NC(=O)CNC(=O)[C@H](CO)NC(=O)CNC(C)=O)C(=O)N[C@H]1C[C@H](O[C@H]2C[C@](O)(C(=O)CO)Cc3c(O)c4c(c(O)c32)C(=O)c2c(OC)cccc2C4=O)O[C@@H](C)[C@H]1O", "note": "[Ac-Gly-Ser-Gly-Arg-Ser-nLeu-Dox] (Ac-GSGRS[Nle]-{Doxorubicin(3'-N)})", "values": [{"measurement": "levels of dox and nor-leu dox in the plasma compared with the tumor", "value": "lower levels"}, {"measurement": "parent conjugate in the tumor", "value": "does not get into the tumor"}, {"measurement": "toxins (norleu dox and dox) concentrations in the tumor", "value": "μM concentrations"}]}]}
